Assay results: US7740850B2, “PDGFRβ-specific antibodies” (ImClone, LLC, priority 2007, dated 2010)

Legend:
[1] = tested on: human PDGFRβ; assay: Cross-reactivity binding test (soluble recombinant protein or cell-surface receptor on human tumor cell lines); conditions: soluble recombinant protein or cell-surface-expressed receptor on human tumor cell lines
[2] = tested on: SK-OV-3 ovarian carcinoma xenograft; assay: Subcutaneous tumor xenograft model; type: in vivo, mouse
Protocol: (§1) Six xenograft models, SK-OV-3, OV-CAR-8, BxPC-3, OV-CAR-5, Caki-1 and NCI-H460 (A to F, respectively) were used to examine the effects of 1B3 on xenograft tumors in athymic nude mice. Mice with established tumors (˜250-300 mm^3) were randomly grouped and treated with 1B3, normal human IgG, or saline by intraperitoneal injection twice weekly (except for BxPC-3 model where the mice were treated three times a week) at the dose indicated. Tumor volumes were measured twice a week and are presented as mean±SEM. *1 indicates the loss of one mouse due to severe illness. 1B3 binds to mouse, but not human, PDGFRβ. Accordingly, the observed responses to treatment result from inhibition of stimulation of host cells.
(§2) Antitumor activity of anti-mPDGFRβ antibody in tumor xenograft models. Six human xenograft tumor models, including three ovarian carcinoma (SK-OV-3, OV-CAR-5 and OV-CAR-8), one pancreatic carcinoma (BxPC3), one lung carcinoma (NCI-H460), and one kidney carcinoma (Caki-1), were used to assess the antitumor activity of 1B3 in vivo. […] Tumor sizes and mouse body weight were measured twice a week. Tumor volume was calculated using the formula: π/6×(length×width^2), where length=longest diameter and width=diameter perpendicular to length. The ratio of average tumor volume in the treatment group versus that in the control group (T/C %) was calculated. […]

[3] = tested on: Caki-1 kidney carcinoma xenograft; assay: Subcutaneous tumor xenograft model; type: in vivo, mouse
Protocol: as §1, §2

[4] = target: T1, PDGFRβ in D122 cells (Mus musculus, UniProt P05622); assay: PDGF-BB-stimulated receptor phosphorylation (Western blot); type: cell-based
T1 construct: endogenous in cells; host or cells: D122
Protocol: (§3) Receptor phosphorylation was determined for NIH/3T3 and D122 cells. The cells were plated onto 6 cm dishes and grown to 70-80% confluence, after which the cells were washed twice in PBS and cultured overnight in serum free medium. […] The cells were lysed in lysis buffer (50 mM Tris-HCl, pH 7.4, 150 mM NaCl, 1% TritonX-100, 1 mM EDTA, 1 mM phenylmethylsulfonyl fluoride, 0.5 mM Na3VO4 1 μg/ml leupeptin, 1 μg/ml pepstatin, and 1 μg/ml aprotinin) for 1 h, followed by centrifugation of the lysate at 12,000 rpm for 10 min at 4° C. The receptors were immunoprecipitated from the cell lysate supernatant by an anti-mPDGFRβ antibody (R&D Systems Inc), followed by the addition of 20 μl of ProA/G-sepharose beads. The precipitated receptor proteins were resolved on a 4-12% NuPAGE Bis-Tris gel and transferred to a polyvinylidene difluoride membrane. Phospho-mPDGFRβ protein was detected on the blot using an anti-phospho-tyrosine antibody-HRP conjugate (Santa Cruz Biotech, Santa Cruz, Calif.). Total receptor proteins loaded on the gel were assayed with an antibody to mPDGFRβ.

[5] = target: T2, PDGFRβ in NIH/3T3 cells (Mus musculus, UniProt P05622); assay: as above; type: cell-based
T2 construct: Receptor phosphorylation was determined for NIH/3T3 and D122 cells; endogenous in cells; host or cells: NIH/3T3
Protocol: as §3

[6] = target: h5β (Homo sapiens, UniProt P09619); assay: Epitope mapping; type: binding; conditions: ✓ / X, key not given
Protocol: (§4) Various chimeric constructs of PDGFRβ and PDGFRα were first made by domain swapping, starting from N-terminus to C-terminus with PDGFRβ domain(s) replacing PDGFRα domain(s). The PDGFRβ/α chimera were tested for the ability of 2C5 binding. Shorter versions of PDGFRβ, including D1D2, D2D3 and D1D2D3, were then made to confirm the 2C5 binding domains on PDGFRβ.

[7] = tested on: 2β3α; assay: Epitope mapping, PDGFRβ/α chimera; type: binding; conditions: ✓ / X, key not given
Protocol: as §4

Sequence of h5β (P09619 33-532 limits assumed): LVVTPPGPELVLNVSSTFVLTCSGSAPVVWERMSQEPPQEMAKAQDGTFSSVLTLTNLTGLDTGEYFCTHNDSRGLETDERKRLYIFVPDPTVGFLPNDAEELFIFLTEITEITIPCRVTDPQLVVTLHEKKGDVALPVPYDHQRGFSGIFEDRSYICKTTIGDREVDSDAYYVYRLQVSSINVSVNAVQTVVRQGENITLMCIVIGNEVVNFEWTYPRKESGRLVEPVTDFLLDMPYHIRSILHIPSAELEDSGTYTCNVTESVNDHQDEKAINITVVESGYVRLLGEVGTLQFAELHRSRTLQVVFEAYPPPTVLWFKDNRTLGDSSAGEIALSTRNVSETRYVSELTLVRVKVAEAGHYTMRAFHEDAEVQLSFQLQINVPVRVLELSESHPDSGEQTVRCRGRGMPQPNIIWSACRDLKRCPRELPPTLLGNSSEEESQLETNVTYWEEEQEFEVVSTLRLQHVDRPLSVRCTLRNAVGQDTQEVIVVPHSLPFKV
Sequence of human PDGFRβ (P09619 33-532 limits assumed): as above
T2 sequence (P05622 32-1098): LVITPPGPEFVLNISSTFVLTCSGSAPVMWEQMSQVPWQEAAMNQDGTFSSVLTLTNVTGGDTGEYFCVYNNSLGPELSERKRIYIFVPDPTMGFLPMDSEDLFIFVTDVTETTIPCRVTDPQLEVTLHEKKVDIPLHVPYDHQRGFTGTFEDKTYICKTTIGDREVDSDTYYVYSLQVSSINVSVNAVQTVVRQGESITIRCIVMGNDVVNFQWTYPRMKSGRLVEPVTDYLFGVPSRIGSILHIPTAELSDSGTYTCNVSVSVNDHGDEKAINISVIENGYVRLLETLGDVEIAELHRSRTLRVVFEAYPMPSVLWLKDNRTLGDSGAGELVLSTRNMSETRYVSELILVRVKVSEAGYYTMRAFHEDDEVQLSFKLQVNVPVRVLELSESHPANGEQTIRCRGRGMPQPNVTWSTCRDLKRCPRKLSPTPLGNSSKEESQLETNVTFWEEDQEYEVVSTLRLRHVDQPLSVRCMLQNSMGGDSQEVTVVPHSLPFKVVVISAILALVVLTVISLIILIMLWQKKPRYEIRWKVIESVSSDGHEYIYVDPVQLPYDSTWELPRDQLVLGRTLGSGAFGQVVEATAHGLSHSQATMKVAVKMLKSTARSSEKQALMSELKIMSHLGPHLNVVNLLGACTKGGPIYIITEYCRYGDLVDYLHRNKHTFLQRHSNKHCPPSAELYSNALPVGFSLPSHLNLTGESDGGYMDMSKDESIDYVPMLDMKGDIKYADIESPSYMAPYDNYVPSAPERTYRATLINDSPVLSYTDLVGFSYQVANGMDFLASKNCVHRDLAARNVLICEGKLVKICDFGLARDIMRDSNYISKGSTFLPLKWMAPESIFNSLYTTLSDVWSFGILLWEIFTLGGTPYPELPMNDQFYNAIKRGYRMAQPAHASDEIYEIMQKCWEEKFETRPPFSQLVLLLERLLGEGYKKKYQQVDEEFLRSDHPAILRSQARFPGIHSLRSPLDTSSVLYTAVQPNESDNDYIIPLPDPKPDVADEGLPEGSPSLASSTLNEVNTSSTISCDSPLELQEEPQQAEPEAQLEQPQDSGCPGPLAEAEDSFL
T1 sequence (P05622 32-1098): as above

Row | Molecule | cross-reactivity, binding to human PDGFRβ [1] | tumor growth inhibition ([2]; 60 mg/kg i.p. twice weekly) | tumor growth inhibition ([2]; two lower doses (6, 20 mg/kg) i.p. twice weekly) | antitumor activity ([3]; Caki-1, 40 mg/kg three times per week or 60 mg/kg twice weekly) | Tumor Volume T/C % ([3]; Caki-1 xenograft, monotherapy) [%] | inhibition of PDGF-BB-stimulated receptor phosphorylation [4] | inhibition of PDGF-BB-stimulated receptor phosphorylation [5] | binding to h5β [6] | binding to 2β3α [7]
1 | 1B3: human anti-mouse PDGFRβ antibody from Fab phage display library, human κ/γ1 constant regions; SEQ ID NOS in Table 1 (antibody, listed as Homo sapiens, V domains shown, human kappa/gamma1 constant regions) VH: QVQLQESGGGLVKPGGSLRLSCAASGFTFSSYSMNWVRQAPGKGLEWVSSISSSSSYIYYADSVKGRFTISRDNSKNTLYLQMNSLRAEDTAVYYCAKGGRPLLVFDFWGQGTLVTVS VL: EIVMTQSPGTLSLSPGERATLSCRASQSVSSSYLAWYQQKPGQAPRLLIYDASKRATGIPARFSGSGSGTDFTLTISTLESEDSAVYYCQQRGYWPPITFGQGTRLEIKR | No cross-reactivity was observed | completely blocked the tumor growth for up to 29 days | No tumor growth inhibition was observed | failed to show any antitumor activity | 65 | inhibited PDGF-BB-stimulated receptor phosphorylation in both NIH/3T3 and D122 cells in a dose dependent manner | inhibited PDGF-BB-stimulated receptor phosphorylation in both NIH/3T3 and D122 cells in a dose dependent manner |  | 
2 | 2C5: PDGFRβ-specific human antibody binding both human and murine PDGFRβ; SEQ ID NOS in Table 1 (antibody, listed as Homo sapiens, V domains shown) VH: QVQLVQSGAEVKKPGSSVKVSCKASGGTFSSYAISWVRQAPGQGLEWMGRIIPILGIANYAQKFQGRVTITADKSTSTAYMELSSLRSEDTAVYYCARDMGSRNYYYFYWGQGTLVTVSS VL: EIVLTQSPATLSLSPGERATLSCRASQSVGRYLAWYQQKPGQAPRLLIYGASNRATGIPARFSGSGSGTDFTLTISSLEPEDFAVYYCQQRSNWPLTFGGGTKVEIK |  |  |  |  |  |  |  | ✓ | ✓
